Data on 4 molecules can be found in patent US20250320268A1 (SHATTUCK LABS, published 2025).

“And” between values parts separate entries of the source, which are not always exact repeats. Identical values can stand only once.

Usually Kd stands for the equilibrium constant for the complex coming apart. One may read the koff as the first-order rate constant of dissociation. The kon is a measure of how fast the partners come together. What is called EC50 is the midpoint of the concentration-response curve.

For assay [1], the target named is recombinant hCD47-Fc (human) (UniProt Q08722). Kind of assay: SIRPα blocking ELISA: plate-bound hCD47, labelled competitor recombinant hSIRPα. In general terms: An ELISA detects its analyte on a solid surface through an enzyme-linked reagent.
Sequence of recombinant hCD47-Fc (human) (Q08722 19-139 limits assumed): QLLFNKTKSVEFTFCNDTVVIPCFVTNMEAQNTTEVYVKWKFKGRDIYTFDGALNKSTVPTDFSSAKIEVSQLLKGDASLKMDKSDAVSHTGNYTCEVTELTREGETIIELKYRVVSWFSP
Assay [2] has as its target recombinant human FcγR1A, histidine-tagged (human) (UniProt P12314). Kind of assay: SPR (ProteOn XPR36); His-tagged FcγR1A immobilized, binder as analyte.
The next assay has as its target T1, recombinant mouse CD47 (mouse, UniProt Q61735 19-140, limits assumed).
T1 construct: also called mCD47-Fc
T1 sequence (looked up): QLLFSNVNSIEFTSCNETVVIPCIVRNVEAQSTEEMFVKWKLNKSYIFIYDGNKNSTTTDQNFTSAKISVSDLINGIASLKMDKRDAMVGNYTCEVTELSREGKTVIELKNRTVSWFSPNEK
In words: dual ELISA: coat mCD47-Fc, detect mCD40-His, tertiary anti-his-HRP. How it is done: Plates were washed with TBS-T (Tris-buffered saline containing 0.1% Tween 20) and then detection antibody was added for 1 hour at room temperature in the dark. Detection antibodies included anti-hIgG-HRP, anti-mIgG-HRP, anti-hCD40L, anti-mCD40L, and then anti-Goat-HRP (all antibodies were obtained from Jackson ImmunoResearch Laboratories or R&D Systems). Plates were washed again and SureBlue TMB Microwell Peroxidase Substrate (KPL; purchased from VWR, catalog no. 95059-282) was added to each well and allowed to incubate at room temperature in the dark. To stop the reaction, 1N sulfuric acid was added to each well and absorbance at 450 nm was read immediately on a BioTek plate reader. Samples were run at a minimum in triplicate and at multiple dilutions.

Assay [3] concerns the target T2, recombinant human CD40, histidine-tagged (human, UniProt P25942 21-193).
T2 construct: Immobilized ligand in SPR and coating reagent in the single-sided ELISA; also called CD40 (AcroBiosystems); hCD40-His; not shown: histidine tag
In words: SPR (ProteOn XPR36); His-tagged CD40 immobilized, binder as analyte.

T2 sequence (P25942 21-193 limits assumed): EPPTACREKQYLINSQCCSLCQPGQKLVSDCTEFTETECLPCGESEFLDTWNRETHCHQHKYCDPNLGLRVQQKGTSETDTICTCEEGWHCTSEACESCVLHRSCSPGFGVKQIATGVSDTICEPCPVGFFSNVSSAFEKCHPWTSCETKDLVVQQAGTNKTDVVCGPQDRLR
Sequence of recombinant human FcγR1A, histidine-tagged (human) (P12314 16-288): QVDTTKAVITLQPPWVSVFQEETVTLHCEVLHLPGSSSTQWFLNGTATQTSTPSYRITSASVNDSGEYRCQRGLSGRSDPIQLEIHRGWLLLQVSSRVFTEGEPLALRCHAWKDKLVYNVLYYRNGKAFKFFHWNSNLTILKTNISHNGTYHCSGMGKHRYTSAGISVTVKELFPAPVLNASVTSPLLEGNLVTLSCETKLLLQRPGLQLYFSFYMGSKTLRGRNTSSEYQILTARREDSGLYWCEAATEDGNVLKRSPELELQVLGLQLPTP

Take “anti-human CD47 blocking antibody, clone CC2C6 (BioLegend)”: the IC50 (read off the curve) in assay [1] is 10 nM.

Consider “human IgG1 (positive control for Fcγ receptors and FcRn) (antibody)”, for which, in assay [2], the Kd is 8.42 nM, the koff turned out to be 0.000156 s⁻¹ and the kon came out at 18400 M⁻¹ s⁻¹.

B1: murine SIRPα-Fc-CD40L chimeric protein surrogate (Fc fusion)
chain: KELKVTQPEKSVSVAAGDSTVLNCTLTSLLPVGPIRWYRGVGPSRLLIYSFAGEYVPRIRNVSDTTKRNNMDFSIRISNVTPADAGIYYCVKFQKGSSEPDTEIQSGGGTEVYVLAKPSPPEVSGPADRGIPDQKVNFTCKSHGFSPRNITLKWFKDGQELHPLETTVNPSGKNVSYNISSTVRVVLNSMDVNSKVICEVAHITLDRSPLRGIANLSNFIRVSPTVKVTQQSPTSMNQVNLTCRAERFYPEDLQLIWLENGNVSRNDTPKNLTKNTDGTYNYTSLFLVNSSAHREDVVFTCQVKHDQQPAITRNHTVLGFAHSSDQGSMQTFPDNNATHNWNVPRDCGCKPCICTVPEVSSVFIFPPKPKDVLTITLTPKVTCVVVDISKDDPEVQFSWFVDDVEVHTAQTQPREEQFNSTFRSVSELPIMHQDWLNGKEFKCRVNSAAFPAPIEKTISKTKGRPKAPQVYTIPPPKEQMAKDKVSLTCMITDFFPEDITVEWQWNGQPAENYKNTQPIMNTNGSYFVYSKLNVQKSNWEAGNTFTCSVLHEGLHNHHTEKSLSHSPGKHRRLDKVEEEVNLHEDFVFIKKLKRCNKGEGSLSLLNCEEMRRQFEDLVKDITLNKEEKKENSFEMQRGDEDPQIAAHVVSEANSNAASVLQWAKKGYYTMKSNLVMLENGKQLTVKREGLYYVYTQVTFCSNREPSSQRPFIVGLWLKPSSGSERILLKAANTHSSSQLCEQQSVHLGGVFELQAGASVFVNVTEASQVIHRVGFSSFGLLKL
notes: also called mSIRPα-Fc-CD40L; mouse SIRPα-Fc-CD40L
In the case of B1, in the assay with recombinant mouse CD47, the EC50 was 7.37 nM and 8.73 nM.

B2: recombinant hCD40L-Fc (positive control analyte) (Fc fusion, human, UniProt P29965 116-261, looked up)
chain: GDQNPQIAAHVISEASSKTTSVLQWAEKGYYTMSNNLVTLENGKQLTVKRQGLYYIYAQVTFCSNREASSQAPFIASLCLKSPGRFERILLRAANTHSSAKPCGQQSIHLGGVFELQPGASVFVNVTDPSQVSHGTGFTSFGLLKL
notes: also called hCD40L-Fc (AcroBiosystems); not shown: Fc part of a bought fusion
For the molecule B2, in assay [3], the Kd came to 1.15 nM, the dissociation rate constant (koff) stood at 0.000351 s⁻¹ and the kon is 304000 M⁻¹ s⁻¹.
